Experimental data: the supplement of paper PMC10567573

B1: PPEF2 (parent)
chain: FIPSSHNDRDFLTRIFTEDRFAQD
B2: ETS2 (parent)
chain: TSGKRYVYRFVCDLQNLLGFTPEE

Variants of: B1
Assay: protein stability index of a GFP-peptide fusion (GPS, HEK-293T) (PSI 1-6); higher = more stable
Conditions: c terminus: a fixed tail appended
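Further: lentivirally expressed fusions sorted by FACS into six bins by GFP to DsRed ratio, PSI derived from sequencing read proportions per bin multiplied by bin number.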

Protein stability index of substitutions, site by site:
F21: Q 1.98 | D 2.52 | C 1.81 | W 2.09 | I 1.74 | T 1.75 | L 2.27 | Y 2.27 | M 1.87 | R 1.75 | P 2.02 | H 1.87 | N 2.54 | S 1.65 | A 1.59 | E 1.81 | K 1.84 | V 1.64 | G 1.92
T17: E 2.19 | K 3.08 | R 1.73 | W 2.79 | A 1.71 | C 3.8 | G 2.7 | M 2.54 | I 2.08 | N 1.68 | D 1.95 | L 2.65 | S 2.05 | Y 2.08 | P 1.97 | F 1.87 | H 1.54 | V 1.85 | Q 1.79
T13: K 1.38 | N 1.7 | S 1.83 | H 1.6 | P 1.82 | L 3.13 | I 2.21 | F 1.5 | G 2.42 | V 1.8 | R 1.91 | Q 1.55 | D 1.83 | Y 2.65 | E 2
Q23: S 2.35 | W 2.55 | E 2.06 | Y 2.84 | T 3.01 | R 3.08 | K 2.33 | A 1.96 | H 2.18 | N 2.68 | V 2.15 | I 1.99 | G 1.89 | D 1.72 | F 2.44 | P 3.1 | L 2.06 | C 2.27 | M 2.09
R20: N 2.07 | T 1.47 | C 2.1 | F 2.24 | M 1.39 | G 1.69 | W 2.54 | D 2.42 | Q 2.15 | S 2.65 | V 1.99 | K 2.11 | Y 2.37 | E 1.81 | A 2.05 | P 2.41 | L 2.05 | I 1.32 | H 3.22
F16: R 1.88 | N 2.12 | Y 1.21 | H 1.69 | A 1.76 | T 2.59 | L 1.91 | Q 2.06 | E 2.02 | I 1.83 | D 2.18 | G 1.92 | K 1.47 | C 2.48 | V 2.6 | S 1.72 | P 2.96 | M 1.84
D19: Y 1.79 | P 1.99 | L 1.96 | T 2.8 | H 1.54 | W 1.99 | A 3.2 | I 2.76 | M 3.16 | N 1.57 | R 1.8 | G 2.46 | K 2.44 | V 2.14 | C 2.12 | F 1.77 | E 2.32 | S 2.51 | Q 1.68
E18: D 2.37 | N 2.12 | R 2.16 | I 3.03 | Y 1.54 | Q 1.71 | P 2.98 | M 2.96 | L 2.19 | T 2.27 | C 2.79 | A 2.64 | H 3.19 | F 2.52 | G 1.48 | W 2.25 | K 2.47 | S 2.18 | V 2.51
D24: C 1.75 | T 1.52 | Q 1.27 | P 1.73 | I 2.99 | K 1.99 | L 2.2 | V 2.79 | A 2.61 | M 1.94 | F 2.83 | W 2.63 | S 2.93 | Y 1.9 | G 2.13 | R 2.19 | E 1.95 | N 1.62 | H 3.06
A22: D 2.56 | K 3.16 | E 2.2 | W 3.33 | M 1.8 | G 1.89 | H 1.83 | F 2.07 | R 2.16 | S 1.63 | L 2 | C 1.95 | T 1.93 | V 2.56 | I 1.78 | Q 2.15 | Y 1.61 | P 1.95 | N 2.59
I15: D 2.01 | W 2.66 | L 1.56 | R 2.9 | K 2.77 | F 2.2 | N 1.83 | A 1.61 | Y 2.22 | C 3.07 | T 2.45 | P 1.91 | G 1.98 | Q 2.19 | E 2.44 | M 2.24 | S 1.84 | H 2.4
R14: D 2.5 | L 2 | G 1.95 | H 2.04 | M 2.55 | E 2.34 | N 2.12 | K 1.55 | I 2.61 | Y 1.7 | P 2.81 | F 2.7 | V 3.04 | C 1.78 | W 2.5 | T 2.36 | S 3.48 | Q 1.93 | A 1.58

Variants of: B2
Assay: as above
Conditions: c terminus: a fixed tail appended

Protein stability index of substitutions, site by site:
S2: M 2.6 | F 2.74 | R 1.77 | L 3 | A 1.74 | E 2.33 | C 1.64 | N 3.49 | P 2.25 | G 2.02 | W 4.44 | Q 1.85 | K 2.29 | I 3.22 | D 2.89 | H 2.62 | V 1.83
Y8: A 2.12
Y6: R 2.31 | A 1.43 | T 2.3 | G 1.35 | P 2.59 | S 2.26 | I 4.21 | F 2.91 | D 1.52 | N 1.52 | H 2.41 | Q 1.86 | V 2.61 | E 1.4 | L 3.25 | C 2.26
G3: W 1.65 | K 1.7 | Y 2.09 | P 1.5 | V 1.86 | R 2 | N 2.77 | L 1.65 | A 2.96 | I 2.11 | T 1.86 | H 2.83 | C 1.81 | S 2.36 | D 3.19 | F 2.33 | Q 2.31 | M 2.08 | E 1.78
K4: C 2.58 | R 3.33 | T 2.17 | V 2 | I 1.36 | W 2.72 | G 2.54 | N 2.34 | D 2.24 | Y 3.33 | L 2.8 | H 2.06 | Q 1.7 | A 2.29 | P 1.83 | M 1.74 | F 2.34 | E 1.72
T1: N 1.82 | W 2.1 | P 1.94 | I 2.6 | E 2.38 | S 2.4 | R 2.29 | M 1.86 | H 2.12 | Q 1.94 | K 1.66 | Y 1.71 | C 1.7 | G 2.08
R5: N 3.24 | K 3.18 | D 2.05 | P 1.52 | V 1.72 | I 3.19 | G 3.53 | S 2.87 | Y 2.88 | A 2.44 | F 3.19 | E 1.69
V7: H 2.04 | W 2.61 | E 1.3 | M 3.69 | D 1.46 | A 1.29 | T 2.57 | S 2.83 | K 2.3 | L 2.22 | P 1.84 | N 1.25 | F 2.25 | Q 1.98 | R 1.03
